The text below walks through data of patent publication US20040259122A1 (MICHIGAN STATE UNIVERSITY, published 2004).

Sequences and labels used below:
T1: Whi2 (activation domain fusion prey) (UniProt P12611 1-486)
T1 construct: not shown: not described
T1 sequence (looked up): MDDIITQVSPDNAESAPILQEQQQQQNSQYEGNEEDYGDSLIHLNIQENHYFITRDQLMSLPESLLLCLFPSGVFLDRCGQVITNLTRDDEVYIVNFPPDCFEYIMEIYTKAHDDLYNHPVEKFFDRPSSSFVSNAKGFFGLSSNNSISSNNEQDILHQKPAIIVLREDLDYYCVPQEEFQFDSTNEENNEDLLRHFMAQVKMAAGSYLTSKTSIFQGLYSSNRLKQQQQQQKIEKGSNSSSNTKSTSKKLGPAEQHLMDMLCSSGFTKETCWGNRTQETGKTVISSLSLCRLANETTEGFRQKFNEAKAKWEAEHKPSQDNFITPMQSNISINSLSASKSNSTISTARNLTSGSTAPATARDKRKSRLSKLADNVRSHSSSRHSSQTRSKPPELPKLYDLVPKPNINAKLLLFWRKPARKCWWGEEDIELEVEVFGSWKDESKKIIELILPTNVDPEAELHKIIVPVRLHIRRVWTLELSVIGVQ

T2: Ssn8 (activation domain fusion prey) (UniProt P47821 1-323)
T2 construct: also called Srb11; not shown: not described
T2 sequence (looked up): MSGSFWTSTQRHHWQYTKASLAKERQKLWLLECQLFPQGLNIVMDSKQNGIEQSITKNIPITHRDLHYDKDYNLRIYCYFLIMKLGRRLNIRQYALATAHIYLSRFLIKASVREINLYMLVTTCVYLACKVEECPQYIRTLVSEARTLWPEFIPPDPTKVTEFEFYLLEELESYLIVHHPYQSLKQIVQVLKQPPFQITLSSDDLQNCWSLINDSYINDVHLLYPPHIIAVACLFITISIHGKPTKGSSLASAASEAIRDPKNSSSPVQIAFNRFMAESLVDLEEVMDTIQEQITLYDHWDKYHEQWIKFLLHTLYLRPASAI

T3: YDR428c (activation domain fusion prey) (UniProt Q04066 1-261)
T3 construct: not shown: not described
T3 sequence (looked up): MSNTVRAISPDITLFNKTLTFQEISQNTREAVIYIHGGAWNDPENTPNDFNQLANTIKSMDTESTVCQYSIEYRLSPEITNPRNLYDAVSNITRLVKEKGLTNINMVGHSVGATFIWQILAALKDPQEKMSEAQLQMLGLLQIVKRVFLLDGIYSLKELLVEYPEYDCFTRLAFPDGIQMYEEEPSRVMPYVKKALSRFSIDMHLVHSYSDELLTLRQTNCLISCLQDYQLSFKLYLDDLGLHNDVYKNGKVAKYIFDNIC

T4: Fcp1 (activation domain fusion prey) (UniProt Q03254 1-732)
T4 construct: not shown: not described
T4 sequence (looked up): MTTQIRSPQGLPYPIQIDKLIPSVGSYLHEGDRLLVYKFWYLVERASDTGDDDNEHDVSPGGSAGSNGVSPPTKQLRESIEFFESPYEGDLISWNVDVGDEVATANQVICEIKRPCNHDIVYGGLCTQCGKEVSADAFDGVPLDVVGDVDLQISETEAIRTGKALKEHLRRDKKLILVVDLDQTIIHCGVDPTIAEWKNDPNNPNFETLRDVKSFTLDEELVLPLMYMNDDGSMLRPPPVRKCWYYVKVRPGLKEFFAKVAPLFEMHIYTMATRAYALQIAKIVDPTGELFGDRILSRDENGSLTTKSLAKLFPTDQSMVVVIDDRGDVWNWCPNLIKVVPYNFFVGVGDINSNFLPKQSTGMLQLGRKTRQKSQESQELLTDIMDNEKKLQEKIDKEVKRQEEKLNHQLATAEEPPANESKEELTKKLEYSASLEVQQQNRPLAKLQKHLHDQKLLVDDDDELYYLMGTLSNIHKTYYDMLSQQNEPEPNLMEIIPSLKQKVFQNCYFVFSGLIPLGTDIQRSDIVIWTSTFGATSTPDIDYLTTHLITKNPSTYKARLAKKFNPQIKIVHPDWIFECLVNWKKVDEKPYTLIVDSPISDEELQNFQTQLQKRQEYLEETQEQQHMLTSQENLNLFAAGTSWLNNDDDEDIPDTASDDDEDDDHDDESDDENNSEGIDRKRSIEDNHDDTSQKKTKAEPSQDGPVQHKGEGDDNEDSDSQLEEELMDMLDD

T5: Tfb3 (activation domain fusion prey) (UniProt Q03290 1-321)
T5 construct: not shown: not described
T5 sequence (looked up): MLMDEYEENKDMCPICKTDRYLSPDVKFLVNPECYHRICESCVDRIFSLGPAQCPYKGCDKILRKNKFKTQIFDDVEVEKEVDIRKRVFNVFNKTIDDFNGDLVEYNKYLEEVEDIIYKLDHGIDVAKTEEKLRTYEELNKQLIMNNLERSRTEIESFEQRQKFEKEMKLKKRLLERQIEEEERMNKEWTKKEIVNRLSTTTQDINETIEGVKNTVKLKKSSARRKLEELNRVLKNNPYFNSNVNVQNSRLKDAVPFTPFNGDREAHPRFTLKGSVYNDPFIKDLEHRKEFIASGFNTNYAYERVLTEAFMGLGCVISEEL

B1: CTD fused to the wildtype Kin28 (pMK500) (other)
chain: MKLLSSIEQACDICRLKKLKCSKEKPKCAKCLKNNWECRYSPKTKRSPLTRAHLTEVESRLERLEQLFLLIFPREDLDMILKMDSLQDIKALLTGLFVQDNVNKDAVTDRLASVETDMPLTLRQHRISATSSSEESSNKGQRQLTVSNYLFDDEDTPPNPKKEIELENLYFQGEFQYSPTSPSYSLTSPSYSPTSPSLTTMAMKVNMEYTKEKKVGEGTYAVVYLGCQHSTGRKIAIKEIKTSEFKDGLDMSAIREVKYLQEMQHPNVIELIDIFMAYDNLNLVLEFLPTDLEVVIKDKSILFTPADIKAWMLMTLRGVYHCHRNFILHRDLKPNNLLFSPDGQIKVADFGLARAIPAPHEILTSNVVTRWYRAPELLFGAKHYTSAIDIWSVGVIFAELMLRIPYLPGQNDVDQMEVTFRALGTPTDRDWPEVSSFMTYNKLQIYPPPSRDELRKRFIAASEYALDFMCGMLTMNPQKRWTAVQCLESDYFKELPPPSDPSSIKIRNVMAIPGGGRIFYPYDVPDYAGYPYDVPDYAGSYPYDVPDYAAQCGRSS
modifications: CTD phosphorylated at the fifth residue (Ser5) by the tethered wildtype Kin28
notes: also called CTD-Kin28 (wildtype); phosphorylated CTD
B2: CTD fused to the mutant Kin28 (pDG502) (other)
chain: B1 chain with E256Q
notes: also called CTD-Kin28 mutant
B3: Kin28 alone bait (pMK498) (other)
chain: MKLLSSIEQACDICRLKKLKCSKEKPKCAKCLKNNWECRYSPKTKRSPLTRAHLTEVESRLERLEQLFLLIFPREDLDMILKMDSLQDIKALLTGLFVQDNVNKDAVTDRLASVETDMPLTLRQHRISATSSSEESSNKGQRQLTVSNYLFDDEDTPPNPKKEIELENLYFQGEFQLTTMAMKVNMEYTKEKKVGEGTYAVVYLGCQHSTGRKIAIKEIKTSEFKDGLDMSAIREVKYLQEMQHPNVIELIDIFMAYDNLNLVLEFLPTDLEVVIKDKSILFTPADIKAWMLMTLRGVYHCHRNFILHRDLKPNNLLFSPDGQIKVADFGLARAIPAPHEILTSNVVTRWYRAPELLFGAKHYTSAIDIWSVGVIFAELMLRIPYLPGQNDVDQMEVTFRALGTPTDRDWPEVSSFMTYNKLQIYPPPSRDELRKRFIAASEYALDFMCGMLTMNPQKRWTAVQCLESDYFKELPPPSDPSSIKIRNVMAIPGGGRIFYPYDVPDYAGYPYDVPDYAGSYPYDVPDYAAQCGRSS

Residue numbers refer to the chain shown, from its start.

The first experiment has as its target T1, Whi2 (activation domain fusion prey). The experiment in a line: yeast two-hybrid, growth in the presence of 3-AT. The procedure:
(§1) Identification of proteins that interact specifically with the phosphorylated CTD. […] Proteins that interact specifically with the CTD-Kin28 (wildtype) but neither of the other two baits are considered phosphorylated CTD-interacting proteins. Yeast strains containing one of the three baits and a variety of preys (activation domain fusion proteins) were tested for their ability to grow in the presence of different concentration of 3-AT. The ability to grow in such medium indicates stable interactions between the bait(s) and the prey(s). The following proteins (numbered 1-7) are considered phosphorylated CTD-interacting proteins: Fcp1 (a phosphatase known to act on phosphorylated CTD), Ssn8 (or Srb11, a component of the RNA polymerase II holoenzyme), Tfb3 (a component of the RNA polymerase II holoenzyme), Whi2 (a protein involved in cellular growth and a component of a protein phosphatase complex containing the Psr1 catalytic subunit), and three novel proteins (YMR181c, YPL229w, and YDR428c) whose functional links to CTD phosphorylation are novel. In addition, previously known (i.e. Ccl1 and Pcl10) and unknown (YDL100c) Kin28-interacting proteins were also identified in this screen (A-C). Several putative phosphorylated CTD interacting proteins are not labeled due to the current lack of the sequence information.
As to B1, the binding result is listed as “binds”.

B2: the binding result is “no binding”.

Consider B3, for which the binding result is recorded as “no binding”.

The next experiment has as its target T2, Ssn8 (activation domain fusion prey). The experiment in a line: yeast two-hybrid, growth in the presence of 3-AT. As to the method:
as §1
With B1, the binding result is “binds”.

On to B2, for which the binding result was “no binding”.

Regarding B3, the binding result is given as “no binding”.

Another experiment addresses T3, YDR428c (activation domain fusion prey). The experiment in a line: yeast two-hybrid, growth in the presence of 3-AT. The procedure:
as §1
Take B1: the binding result is on record as “binds”.

For the molecule B2, the binding result is on record as “no binding”.

With B3, the binding result is recorded as “no binding”.

In a further experiment the target is T4, Fcp1 (activation domain fusion prey). The experiment is described as follows: yeast two-hybrid, growth in the presence of 3-AT. The procedure: as §1
B1: the binding result is listed as “binds”.

As to B2, the binding result was “no binding”.

Turning to B3, the binding result is “no binding”.

The next experiment concerns the target T5, Tfb3 (activation domain fusion prey). The experiment in a line: yeast two-hybrid, growth in the presence of 3-AT. As to the method:
as §1
In the case of B1, the binding result was “binds”.

For B2, the binding result is “no binding”.

Regarding B3, the binding result is “no binding”.
